Assay results taken from the RNAGym collection of RNA variant scans (doi:10.1073/pnas.2313332121).

B1: TPR t1 (parent)
chain: GACCAAUCUGCCCUCAGAGCUCGAGAACAUCUUCGGAUGCAGAGGAGGCAGGCUUCGGUGGCGCGAUAGCGCCAACGUCCUCAACCUCCAAUGCAUCCCACCACAUGAUGAUGCCUGAAGAGCCUUGGUUUUUUG

Variants of: B1
Test: polymerase ribozyme fitness, log enrichment relative to wild type (log ratio); higher = more active; in vitro selection for triplet polymerase activity
Method in brief: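 Fitness measures genotype enrichment against wild-type enrichment on a logarithmic scale, with inverse-variance-weighted averaging of replicates. The logarithm is base 2, and genotypes were kept only with ≥10 input reads and ≥1 read per output in Illumina sequencing. The sequenced libraries came from one triplicate in vitro selection round, including frozen incubation at −7 °C, of PCR-built, transcribed mutant libraries of each subunit of a heterodimeric triplet polymerase ribozyme.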

| Variant | polymerase ribozyme fitness (log ratio) |
| --- | --- |
| G36A A43G A105U U112C | -5.32 |
| A2C C49G | -2.18 |
| U9A G42C C62A C101U | -3.42 |
| G47A C64U C98U | -2.79 |
| C12U C49G C56U | -0.342 |
| G42C G69U A91U C102U | -0.697 |
| G61U G110U A111U | -4.03 |
| G35C U106C | -4.83 |
| C56U G69A G113A | -5.38 |
| C53U C70U A74G G113C U133A | -2.94 |
| C8G G128U U130C | 0.904 |
| C56G C70A | -3.64 |
| U9C A41C A118U A119G | 0.0807 |
| A37U A41U C79G | -4.3 |
| U9G G48U C49U C73G G120U | 0.0812 |
| U7C A74G C79A G93A U106C G117U U129C U130C | -5.05 |
| A5G A121C | 0.258 |
| A26U A46U | -4.63 |
| G44C G58C A121G | 1.21 |
| U33C G61C | -5.84 |
| G57U G120C | 0.593 |

| Variant | polymerase ribozyme fitness (log ratio) |
| --- | --- |
| A29G A46C A50G U54C G120U C123A U129C | -4.1 |
| C13U G51U U116C | -3.09 |
| U7G C28U G48A | -1.75 |
| C70G C88G | -5.57 |
| C28G C101U | -3.08 |
| C8G C22U C40G G120A C124A | -2.61 |
| C12U G61A U92A U126A | -4.38 |
| C3G C8A A37U A111G G120A U125C | -3.58 |
| C12G C101G G110U | -5.05 |
| G69U A84C | 0.129 |
| C79A U92C G110C U125G | -5.23 |
| C8A U87A G107C | -4.36 |
| U7A G10A G52A C115U | -1.15 |
| C11U G110C | -2.8 |
| G60U C62U | -0.758 |
| G58A A91C C101A C123G | -1.04 |
| G47U G127U | -2.57 |
| G17A C88U U96C | -3.71 |
| C72G U112C | 1.51 |
| G69A C104U | -2.37 |
| A66G C79G U81C C99G G113U G120C | -7.68 |

| Variant | polymerase ribozyme fitness (log ratio) |
| --- | --- |
| C12A C72U C102U C114G | -5.72 |
| C12U C72G C86U C104U G122A | -0.0421 |
| C8U C20G | -3.53 |
| G42C C89U C102A | -5.66 |
| C12U C34A G63C | -3.05 |
| C13A C56G C73U G77U | -1.96 |
| C88A G113A C124A G135U | -1.79 |
| U32C C40G G45A G47A U54A G61U C88G G110C A111G G117A U125A | -7.2 |
| A37C G107A C123A | -5.8 |
| A18C G48A | -2.74 |
| C8A G23A A66G G69U C104U A118G | -5.28 |
| C8U A16U A66U C72G G77U C123U | -1.74 |
| C53G U112G C114A G135U | -5.63 |
| C49U G51A G63C | -3 |
| G23A C56G A95U U112A G127C | -6.5 |
| G39C C73G C102A | -4.36 |
| A26U G48C A50U C53U | -4.37 |
| G61A U78A | -0.223 |
| C115U G135U | -1.91 |
| G10U C82U | -0.583 |
| G25U G120C | -3.76 |

| Variant | polymerase ribozyme fitness (log ratio) |
| --- | --- |
| C20U C72A A83G G113U | -2.08 |
| C4U A43U G69C | -4.04 |
| A18C A121C | -1.86 |
| G60C A105U | -3.07 |
| G10U C56G A111C | -0.962 |
| G35U U112C | -3.04 |
| G57A G71U C124A G135A | 0.736 |
| C22G G93A | -3.42 |
| C4U G36A C70A G71A A90G U112G | -6.28 |
| G48C G60A | -1.1 |
| G107A U116C | -5.17 |
| A43C G48C G113C A119C G120U A121G | -2.55 |
| G44U G47U C49G | -5.36 |
| U87A G117U U129G | -5.03 |
| C15A C49U A90U A108G C114G | -6.22 |
| G19A C88U | -2.19 |
| A111U A121C U126A U130G | -2.89 |
| G17U C62U C73U C101A U130C | -3.73 |
| G48U G65U | -6.34 |
| C13U C97A | -3.93 |
